Measured values taken from US20020048584A1, “Method of treating residual HIV-I disease” (priority 2000, published 2002).

Key:
[1] = Safety and tolerability of IL-2 and OKT3 stimulation therapy with hydroxyurea and ddI intensification in patients on HAART; type: in vivo, human
Experimental: Treatments with OKT3 and IL-2 are initiated with a physician present during a four to five day admission to the Bone Marrow Transplant Unit. The first dose of IL-2 is given 24 hours after infusion of OKT3, and continued for a total of fourteen days. After 72 hours, if the patient has no or mild adverse side-effects, then the patient can be discharged and followed in the Infectious Disease Clinic as an out-patient, continuing IL-2 administration at home. […] Of note, further treatments with OKT3 may not be possible due to the potential production of human anti-murine antibodies ([…]., et al., Transplant Rev. 5: 181-199, 1991). […] The NIAID standardized toxicity grading system will be utilized (Table 3). Toxicity is graded on a 1 to 4 scale. When toxicity is encountered the dose administered to subjects is modified. […] Level 2 dose reduction will include discontinuation from the study. For hydroxyurea, Level 1 dose reduction will be to 800 mg qday (400 mg po BID).

CD4+ T-lymphocytes = details: cited from earlier work
[2] = in vivo; cited from earlier work
[3] = OKT3 over 5 to 15 minutes on first day, followed by IL-2; cited from earlier work
T-lymphocytes = details: solid organ transplant subjects; cited from earlier work

**Q.** For O=c1[nH]cnc2c1ncn2[C@H]1CC[C@@H](CO)O1 [ddI, didanosine, reference compound], which serious adverse side-effects ([1]; patient #28, entire trial) is on record?
**A.** did not have serious adverse side-effects

**Q.** With NC(=O)NO [hydroxyurea, reference compound] as the compound, how does the serious adverse side-effects ([1]; patient #28, entire trial) read?
**A.** did not have serious adverse side-effects

**Q.** With “IL-2: cytokine, 15,300 daltons, produced via recombinant DNA technology using genetically-engineered E. coli (Proleukin; Chiron)” as the compound, how does the serious adverse side-effects ([1]; human, in vivo) read?
**A.** did not have serious adverse side-effects

**Q.** And the “increase in CD4+ T-lymphocytes” value (CD4+ T-lymphocytes; intravenous 18×10^6 IU per day, five-day treatments every two months, 6 cycles, baseline CD4+ greater than 200 cells/mm^3)?
**A.** approximately 400 cells per mm3

**Q.** And the “CD4+ T-lymphocyte count, mean value after treatment” value (CD4+ T-lymphocytes; subcutaneous, 5 day courses every 8 weeks for 6 cycles, starting 7.5×10^6 IU bid, mean 355 at entry)?
**A.** 739

**Q.** Which results are given for “OKT3: purified murine monoclonal antibody (IgG2a) directed to the CD3 antigen of human T-lymphocytic cells”?
**A.** chest pain, patients [2]: 14%; dyspnea, patients [2]: 21%; headache, patients [2]: 11%; hypertension, patients [2]: 8%; nausea, patients [2]: 19%; rigor, patients [2]: 8%; tachycardia, patients [2]: 10%; tremor, patients [2]: 13%; vomiting, patients [2]: 19%; wheezing, patients [2]: 13%; serious adverse side-effects ([1]; human, in vivo): did not have serious adverse side-effects; maximum tolerated dose (MTD) [3]: 400 μg/m^2; time to return of T-cell function to baseline levels after termination (T-lymphocytes): one
